Data as given in article PMC7889895, “Crystal structure of a photosynthetic LH1-RC in complex with its electron donor HiPIP” (Nature Communications, 2021).

Biological target: light-harvesting 1 - reaction center complex (LH1-RC) of Thermochromatium tepidum (Thermochromatium tepidum, UniProt D2Z0P5 23-404; D2Z0P3 1-281; A8ASG6 1-325; D2Z0P9 1-259; D2Z0P2 1-61; D2Z0P1 …)
Assay: crystal structure; co-crystal by micro-batch under oil; HiPIP:LH1-RC mixed 15:1, LH1-RC 0.0694 mM; 30 mM sodium succinate pH 5, 20 mM CaCl2, 3.4% OPC, 30% PEG 1500; 20 °C; 2.9 Å
Conditions: both partners purified

B1: high-potential iron-sulfur protein (HiPIP) of Thermochromatium tepidum (natural protein, UniProt P80176 1-83, looked up)
chain: AAPANAVTADDPTAIALKYNQDATKSERVAAARPGLPPEEQHCANCQFMQANVGEGDWKGCQLFPGKLINVNGWCASWTLKAG
notes: High-potential iron-sulfur protein (HiPIP), Thermochromatium tepidum strain MC, native protein with its 4Fe-4S cluster, purified in the reduced state; Carries a 4Fe-4S cluster; also called Tch. tepidum HiPIP; source: purified from Tch. tepidum strain MC (soluble fraction of sonicated cells, DEAE column)
stoichiometry N: 1 HiPIP per LH1-RC
